In one experiment the target is T1, His-SUS1 (Arabidopsis, UniProt P49040 1-808).
T1 construct: Gateway pDEST17 adds linker residues between the His tag and the protein; also called SUCROSE SYNTHASE 1; source: E. coli ArcticExpress RP, purified (Ni-NTA, Superdex 200 SEC); not shown: 6xHis, N-terminal, kept
Briefly: MST; sfGFP-RGS1(ΔC-tail) as the fluorescent target, His-SUS1 or His-SUS4 as ligands; NanoTemper Monolith NT.115. As to conditions: both partners purified.

Another experiment has as its target T2, His-SUS4 (Arabidopsis, UniProt Q9LXL5 1-808).
T2 construct: Gateway pDEST17 adds linker residues between the His tag and the protein; also called SUCROSE SYNTHASE 4; source: E. coli ArcticExpress RP, purified (Ni-NTA, Superdex 200 SEC); not shown: 6xHis, N-terminal, kept
The experiment is described as above. The settings on record: both partners purified.

Broadly, the Kd is the free concentration of one partner at which half of the binding sites on the other are occupied at equilibrium, for simple one-to-one binding. The low end stands for a tighter complex, the high end for a looser complex.

T1 sequence (P49040 whole entry): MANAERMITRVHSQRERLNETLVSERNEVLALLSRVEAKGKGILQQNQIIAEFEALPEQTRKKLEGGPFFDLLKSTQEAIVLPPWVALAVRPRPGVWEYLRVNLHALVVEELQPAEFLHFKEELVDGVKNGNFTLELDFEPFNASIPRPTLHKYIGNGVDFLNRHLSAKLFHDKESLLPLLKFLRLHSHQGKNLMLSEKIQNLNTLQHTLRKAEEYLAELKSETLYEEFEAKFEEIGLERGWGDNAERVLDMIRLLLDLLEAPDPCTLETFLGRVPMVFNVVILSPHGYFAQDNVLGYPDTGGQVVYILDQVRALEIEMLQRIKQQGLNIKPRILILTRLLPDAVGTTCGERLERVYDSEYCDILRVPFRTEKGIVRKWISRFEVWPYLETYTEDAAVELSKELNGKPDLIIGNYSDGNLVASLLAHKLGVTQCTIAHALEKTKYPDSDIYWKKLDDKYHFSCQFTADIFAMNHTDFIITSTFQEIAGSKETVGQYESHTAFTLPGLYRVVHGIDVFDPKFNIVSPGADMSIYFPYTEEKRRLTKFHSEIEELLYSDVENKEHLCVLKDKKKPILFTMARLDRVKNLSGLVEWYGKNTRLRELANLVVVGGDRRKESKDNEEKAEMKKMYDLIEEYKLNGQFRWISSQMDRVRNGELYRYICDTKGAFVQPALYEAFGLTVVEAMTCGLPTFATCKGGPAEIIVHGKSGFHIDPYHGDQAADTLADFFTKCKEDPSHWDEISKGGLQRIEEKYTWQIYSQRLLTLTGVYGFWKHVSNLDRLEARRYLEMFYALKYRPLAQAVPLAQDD
T2 sequence (Q9LXL5 whole entry): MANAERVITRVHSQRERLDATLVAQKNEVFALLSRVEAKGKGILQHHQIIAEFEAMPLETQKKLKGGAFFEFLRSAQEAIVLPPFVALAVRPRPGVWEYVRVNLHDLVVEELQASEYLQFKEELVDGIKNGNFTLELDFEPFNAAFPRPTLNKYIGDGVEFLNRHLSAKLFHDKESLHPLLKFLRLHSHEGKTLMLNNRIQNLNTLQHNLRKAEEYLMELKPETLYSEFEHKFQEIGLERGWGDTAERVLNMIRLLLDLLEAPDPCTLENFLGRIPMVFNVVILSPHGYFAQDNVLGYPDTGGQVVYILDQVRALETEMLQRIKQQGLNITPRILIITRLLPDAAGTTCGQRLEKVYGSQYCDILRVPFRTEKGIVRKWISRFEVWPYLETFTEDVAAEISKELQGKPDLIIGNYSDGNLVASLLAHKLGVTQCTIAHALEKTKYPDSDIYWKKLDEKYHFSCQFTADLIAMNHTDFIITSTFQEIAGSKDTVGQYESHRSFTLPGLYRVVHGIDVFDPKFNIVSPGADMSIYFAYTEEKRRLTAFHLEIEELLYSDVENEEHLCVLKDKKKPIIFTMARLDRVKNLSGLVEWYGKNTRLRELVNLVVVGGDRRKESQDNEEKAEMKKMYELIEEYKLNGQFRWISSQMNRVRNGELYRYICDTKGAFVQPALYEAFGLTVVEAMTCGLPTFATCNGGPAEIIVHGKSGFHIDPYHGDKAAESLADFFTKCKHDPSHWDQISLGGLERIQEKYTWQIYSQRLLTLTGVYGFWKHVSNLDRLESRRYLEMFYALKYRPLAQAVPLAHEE

B1: HA–Flag–10xHis–sfGFP–TEV–Optimized–RGS1(ΔC-tail) (domain or fragment)
chain: MASGCALHGGCPSDYVAVAISVICFFVLLSRSVLPCLIHKAPRTNSSSFWIPVIQVISSFNLLFSIMMSVNLLRFRTKHWWRYCYLWAVWIEGPLGFGLLMSCRITQAFQLYFIFVKKRLPPVKSYIFLPLVLLPWIFGAAIIHATKPLNDKCHMGLQWTFPVAGLHALYVLALIAFTRAVRHVEFRFDELRDLWKGILVSATSIVIWVTAFVLNEIHEEISWLQVASRFVLLVTGGILVVVFFSISSNQPLLSQISLKKRQNFEFQRMGQALGIPDSGLLFRKEEFRPVDPNEPLDKLLLNKRFRHSFMEFADSCYAGETLHFFEEVYEHGKIPEDDSIRRIYMARHIMEKFIVAGAEMELNLSHKTRQEILTTQDLTHTDLFKNALNEVMQLIKMNLVRDYWSSIYFIKFKEEESCHEAMHKEGY
For the molecule B1, the Kd with His-SUS1 stood at 161 ± 9 nM; with His-SUS4 it was 106 ± 3 nM.

For the origin of these results see publication doi:10.1101/2025.09.10.672744, “UDP-glucose Activation of a G-protein/Sucrose Synthase Signaling Supercomplex” (bioRxiv, 2025).
